B1: Alpha-lactalbumin, P00712 (parent)
chain: MMSFVSLLLVGILFHATQAEQLTKCEVFQKLKDLKDYGGVSLPEWVCTAFHTSGYDTQAIVQNNDSTEYGLFQINNKIWCKDDQNPHSRNICNISCDKFLDDDLTDDIVCAKKILDKVGINYWLAHKALCSEKLDQWLCEKL

Variants of: B1
Conditions: Capra hircus; pH 7; 25 °C; GdnHCl; CD; sodium cacodylate 50 mM; NaCl 50 mM; reversible: yes; structure 1HFY; whole UniProt chain shown

Row | Variant | ddG of mutation (higher = less stable) | denaturant m value | denaturant midpoint (higher = more stable) | unfolding free energy
1 | T48I | -4.4 kcal/mol | 2.6 kcal/mol/M | 3.93 M | 10.1 kcal/mol
2 | A49I T52I | -0.4 kcal/mol | 2.1 kcal/mol/M | 2.85 M | 6.1 kcal/mol
3 | T52I | 1.1 kcal/mol | 2 kcal/mol/M | 2.31 M | 4.6 kcal/mol
4 | A49T | -1.7 kcal/mol | 3.1 kcal/mol/M | 2.44 M | 7.4 kcal/mol
5 | A49I | -2.4 kcal/mol | 2.7 kcal/mol/M | 3.01 M | 8.1 kcal/mol

Reference: FireProtDB
